These results are taken from article PMC10972748 (2024).

Where a chain is given by its changes, count along the chain named.

This test concerns the target SPSB3–ELOBC heterotrimeric complex (SPSB3 amino acids 83–326 with elongin B and elongin C) (human | , UniProt Q6PJ21 83-326; Q15370 1-118; Q15369 1-112). Kind of test: BLI.

As usually defined, the Kd is a measure of binding affinity in units of concentration. Read a low Kd as tighter binding.

B1: His-Halo-tagged cGAS single point mutant of Glu515 (natural protein)
chain: MQPWHGKAMQRASEAGATAPKASARNARGAPMDPTESPAAPEAALPKAGKFGPARKSGSRQKKSAPDTQERPPVRATGARAKKAPQRAQDTQPSDATSAPGAEGLEPPAAREPALSRAGSCRQRGARCSTKPRPPPGPWDVPSPGLPVSAPILVRRDAAPGASKLRAVLEKLKLSRDDISTAAGMVKGVVDHLLLRLKCDSAFRGVGLLNTGSYYEHVKISAPNEFDVMFKLEVPRIQLEEYSNTRAYYFVKFKRNPKENPLSQFLEGEILSASKMLSKFRKIIKEEINDIKDTDVIMKRKRGGSPAVTLLISEKISVDITLALESKSSWPASTQEGLRIQNWLSAKVRKQLRLKPFYLVPKHAKEGNGFQEETWRLSFSHIEKEILNNHGKSKTCCENKEEKCCRKDCLKLMKYLLEQLKERFKDKKHLDKFSSYHVKTAFFHVCTQNPQDSQWDRKDLGLCFDNCVTYFLQCLRTEKLENYFIPEFNLFSSNLIDKRSKEFLTKQIEYERNNAFPVFDEF
As to B1, binding was put at a Kd of 453 nM.

B2: His-Halo-tagged cGAS single point mutant of Arg512 (natural protein)
chain: B1 chain with R512A, A515E
In turn, B2 had a Kd of 957 nM.

B3: His-Halo-tagged cGAS single point mutant of Asp465 (natural protein)
chain: B1 chain with D465A, A515E
The molecule B3 gave a Kd of 818 nM.
